Experiments:
hFcγRI = assay: -; range printed as 0.12~0.28
hFcγRIIa131H = assay: -
hFcγRIIIa158V = assay: -; range printed as 0.20~0.28

Substance: IgG 1
- Kd (hFcγRI): 0.12 nM
- Kd (hFcγRIIa131H): 850 nM
- Kd (hFcγRIIIa158V): 200 nM

— patent publication US20170247463A1
